This test concerns the target T1, IL13Rα2 (human, UniProt Q14627 27-380).
T1 construct: whole, on cells; Endogenous target on U87 cells; also called IL-13Ra2; IL13Ra2
T1 sequence (looked up): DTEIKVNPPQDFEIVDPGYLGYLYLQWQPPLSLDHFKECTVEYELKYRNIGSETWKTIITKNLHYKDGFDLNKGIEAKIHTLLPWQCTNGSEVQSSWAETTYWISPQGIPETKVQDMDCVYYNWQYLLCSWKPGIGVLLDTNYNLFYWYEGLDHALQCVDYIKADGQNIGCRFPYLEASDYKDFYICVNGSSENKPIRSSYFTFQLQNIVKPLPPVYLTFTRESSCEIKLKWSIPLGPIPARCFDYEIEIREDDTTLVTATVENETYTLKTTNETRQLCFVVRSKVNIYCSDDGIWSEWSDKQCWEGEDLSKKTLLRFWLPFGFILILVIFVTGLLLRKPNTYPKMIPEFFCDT
In words: inferred by the filing from LDH cytotoxicity of CAR-T cells on U87 (IL13Rα2+) versus 293FT (IL13Rα2-) cells. Here is the method: In order to measure the cytotoxicity of IL13Rα2-specific CAR-T cells prepared in Example 2 (#1, #2, #5, #6, #7, #8, #11, or #12), cytotoxicity assay was performed using an LDH (Promega) kit. Specifically, CAR-T cells (effector cells) were used 10 days after activation of the cells with an anti-CD3 Ab, and the CAR-T cells (having a CAR expression rate of 20% to 40%) were added to a 6-well plate at a ratio 1:2, in which effector:target was 1×10⁶ cells:2×10⁶ cells and reacted at 37° C. for 24 hours.
An analysis was performed to examine whether IL13Rα2-specific CAR-T cells prepared in the present invention can effectively kill the target cancer cells (U87 expressing IL13Rα2).

B1: CAR-containing polypeptide #6 (IL13Rα2-specific chimeric antigen receptor with human IL13.E11K.R64D.S67D.R107K binding domain, 4-1BB, IL-7Rα part, mutant CD3ζ) (receptor)
chain: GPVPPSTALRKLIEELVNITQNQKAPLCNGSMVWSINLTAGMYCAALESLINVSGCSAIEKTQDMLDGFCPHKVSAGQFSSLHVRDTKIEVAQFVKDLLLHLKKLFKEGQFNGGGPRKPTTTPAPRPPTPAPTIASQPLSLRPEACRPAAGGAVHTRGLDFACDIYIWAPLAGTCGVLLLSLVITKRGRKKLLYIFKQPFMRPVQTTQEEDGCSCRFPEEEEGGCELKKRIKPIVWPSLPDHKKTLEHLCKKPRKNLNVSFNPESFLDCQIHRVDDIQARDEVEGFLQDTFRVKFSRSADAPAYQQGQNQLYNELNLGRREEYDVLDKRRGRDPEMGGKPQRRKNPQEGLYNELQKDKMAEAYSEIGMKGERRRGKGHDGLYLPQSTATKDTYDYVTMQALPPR
notes: Expressed on human T cells; also called CAR-T #6; PG13/#6
As to B1, the binding result is “binds”.

B2: CAR-containing polypeptide #12 (IL13Rα2-specific chimeric antigen receptor with human IL13.E11K.R64D.S67D.R107K binding domain, 4-1BB, IL-2Rβ part, mutant CD3ζ) (receptor)
chain: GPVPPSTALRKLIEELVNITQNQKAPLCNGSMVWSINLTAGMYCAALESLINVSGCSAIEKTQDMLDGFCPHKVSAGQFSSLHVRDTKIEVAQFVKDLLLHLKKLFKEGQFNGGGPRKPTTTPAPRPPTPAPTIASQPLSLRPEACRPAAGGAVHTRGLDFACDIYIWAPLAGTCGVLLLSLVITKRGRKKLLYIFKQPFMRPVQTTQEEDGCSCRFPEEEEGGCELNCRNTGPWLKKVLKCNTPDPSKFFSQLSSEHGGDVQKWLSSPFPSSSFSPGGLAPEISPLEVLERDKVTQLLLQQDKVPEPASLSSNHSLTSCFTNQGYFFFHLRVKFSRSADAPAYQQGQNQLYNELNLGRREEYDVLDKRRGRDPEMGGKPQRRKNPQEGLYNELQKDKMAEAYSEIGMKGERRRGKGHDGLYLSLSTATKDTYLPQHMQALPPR
notes: Expressed on human T cells; also called CAR-T #12; PG13/#12
On to B2, for which the binding result is given as “binds”.
